Laboratory results from the supplement of paper PMC12042874.
± gives the uncertainty stated by the source.

Test: amyloid nucleation score (Sup35N fusion, yeast selection) (log enrichment); library NNK2; higher = more nucleation; inactive = no reads after selection
Summary of the method: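 Sup35N was fused to peptides of 20 random codons and expressed in psi-negative yeast, which were induced with 100 μM copper sulfate for 24 hours and then grown on medium lacking adenine and uracil for 7 days at 30°C. Plasmid inserts from input and output were sequenced on Illumina. The nucleation score is the DiMSum log enrichment of output over input reads, centred on the mode score of non-aggregating sequences. Sequences with under 100 input reads were left out, and random libraries had three technical output replicates.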

Row | Substance | amyloid nucleation score
1 | SMDGSQDCTTKLNWSFHSVF | 3.88 ± 0.066
2 | SMDRIQEGLHRQLVFDVSE | 0.624 ± 0.35
3 | SMEAFYRGFFKTPWSY | -0.2 ± 0.29
4 | SMIIQTQHI | 0.024 ± 0.55
5 | SMILVHKSNLQFLGKDDTQS | 6.539 ± 0.025
6 | SMISWATMVSRRDYLYMCV | -0.216 ± 0.45
7 | SMPMGGERIWVIYCRFQVLS | -0.585 ± 0.35
8 | SMRCLIMCATDCRNDMGRLW | 5.362 ± 0.039
9 | SMRTG | 0.448 ± 0.23
10 | SMRVYHSHLNWFH | 6.63 ± 0.063
11 | SMYVDVFLRFGSWLHSFT | -0.127 ± 0.74
12 | SNCFHLVW | -0.031 ± 1
13 | SNCRQSPYNNQVI | 0.155 ± 1.1
14 | SNESNFIVICVCMDCIRGGG | inactive
15 | SNFPWPMERPEFSDDSVFWA | -0.313 ± 0.76
16 | SNFVTVSGTPPHIILMCKDW | 4.71 ± 0.055
17 | SNGCQTRADGLTECDICKPS | 0.33 ± 0.24
18 | SNGCRRALL | inactive
19 | SNGLGLQCGIRGKVFNELLS | -0.674 ± 0.42
20 | SNIYLVPRFIWP | -0.338 ± 0.61
21 | SNLVKHRQV | 0.745 ± 0.46
22 | SNNHND | inactive

Row | Substance | amyloid nucleation score
23 | SNPSVNLCRWIDACNSDLIT | 0.165 ± 1
24 | SNSVCACCKCWLGLSLPYQG | 7.781 ± 0.046
25 | SNVDVFVTKMWRATQSCFRL | 3.67 ± 0.12
26 | SNVFEVGPMGPSR | 0.056 ± 0.5
27 | SNWNTTPVSPS | 0.514 ± 0.44
28 | SNYHSGRVKGGDVGVYIS | 3.57 ± 0.051
29 | SPCFWMLPVKKPPACR | 5.082 ± 0.039
30 | SPHASMTIVIF | 1.04 ± 0.22
31 | SPHDVGNSIVIMGFRMWLN | 0.082 ± 0.44
32 | SPIPFPYMYVYSMWCDTLTR | 0.505 ± 0.3
33 | SPKTDDTTVMGELYVWLTLG | 8.338 ± 0.036
34 | SPKTYRRIIGIGQVAVRVCK | 0.673 ± 0.25
35 | SPLCVF | -0.211 ± 0.38
36 | SPLYLTLCMTLQVYGSR | 4.04 ± 0.073
37 | SPMNDLY | 0.041 ± 0.49
38 | SPMTDLVRMRGRME | 0.051 ± 0.49
39 | SPNRQLVKFYFQTTYMVSRL | 3.52 ± 0.071
40 | SPRSAIFSLTTQVF | 3.34 ± 0.13
41 | SPYAFACAGCSGVKG | 0.234 ± 0.26
42 | SPYLMSTDKIRLSP | 1.16 ± 0.44
43 | SQCFERV | 0.637 ± 0.36
44 | SQGIVSDAANYMHILSAGYD | 0.044 ± 0.55

Row | Substance | amyloid nucleation score
45 | SQKNCCKVEGRLMASRVKPR | 0.155 ± 1.1
46 | SQLLDSLQNGRGCYSM | inactive
47 | SQPHYGRASACRSSSSR | 0.831 ± 0.51
48 | SRANMQSRCRLNNQSVYGKL | -0.175 ± 0.45
49 | SRCLSSITVLTCNHMSVKAC | 0.224 ± 0.8
50 | SRDCVRDLSVMCSLWKWFPV | -0.394 ± 1.1
51 | SRDVAAYNRRRRFAVLGWGE | 0.44 ± 0.38
52 | SRFGGVSTHYLARSFVDVTM | 0.039 ± 0.44
53 | SRGISKVTWP | 0.276 ± 0.28
54 | SRGSYIPSPLRHSFSVLWRF | -0.785 ± 0.63
55 | SRHRVLFFYKFVCLIWV | -0.8 ± 0.74
56 | SRIRDLVPHIRC | -0.594 ± 1.1
57 | SRLISTHTAT | inactive
58 | SRMLYVQIWREYVNSWKTSS | -0.356 ± 0.38
59 | SRNSLLRS | -0.924 ± 0.45
60 | SRRVLYMVVPPLVF | -1.36 ± 0.54
61 | SRSAWLRELDPPA | 0.839 ± 0.43
62 | SRSFKVRNL | inactive
63 | SRSILLKAGWI | inactive
64 | SRSSHLM | 0.073 ± 0.37
65 | SRSSTCGSRGLTGNRGGGIG | 0.299 ± 0.45
66 | SRVYRCGWLGS | 0.274 ± 0.65

Row | Substance | amyloid nucleation score
67 | SRYFVVAGRSLNTCVNMCCV | 4.78 ± 0.069
68 | SRYSSV | 0.172 ± 0.65
69 | SSADMQRY | -0.383 ± 0.48
70 | SSASFSVHQYCYLLNPSF | 1.45 ± 0.28
71 | SSASLGVAV | -0.517 ± 0.76
72 | SSAYQMSEY | 0.072 ± 1.1
73 | SSCPYYHGYNVRVMSCSHVI | 0.091 ± 0.4
74 | SSCYSVLGMRL | inactive
75 | SSEIKRSWGYFLSLLWFYYR | -0.696 ± 1
76 | SSFHWPIKSRDAGVAWSRGG | 2.07 ± 0.18
77 | SSFRSLRSRHPPGTLPPDTP | 0.919 ± 0.3
78 | SSKLLYM | -0.059 ± 0.55
79 | SSLFMTIWDSFSPI | -0.186 ± 0.45
80 | SSLVVMMGILMEVTVAGLGV | 0.241 ± 0.37
81 | SSLWSGPKVIQDY | -0.122 ± 0.28
82 | SSNSANVILASYEDYRRVNP | -0.526 ± 0.79
83 | SSQCYYGPLFWSYEFRSYCV | -0.162 ± 0.46
84 | SSQFR | 0.705 ± 0.44
85 | SSRSTCNINSYELSVSVQLR | 5.35 ± 0.075
86 | SSTVCCHALVCSVSNFGFTV | 9.783 ± 0.038
87 | SSVRR | 0.723 ± 0.22
88 | SSWPSMST | -0.458 ± 0.28

Row | Substance | amyloid nucleation score
89 | SSWSSNQNSTYTLRSYTALH | 5.2 ± 0.069
90 | SSWYHFDFGYCECGSNDGFV | 0.102 ± 0.79
91 | SSYLMTYC | -0.104 ± 0.35
92 | SSYRSEGSAYGMPYYPVSAS | 1.06 ± 0.38
93 | STAWKCEVYRRV | 1.14 ± 0.33
94 | STDIWVWFYRNFLMTANRN | inactive
95 | STDWNLRPGPSLRWLLSPAT | 0.92 ± 0.45
96 | STGIGDNATFSYRISRYSVC | -0.492 ± 0.39
97 | STLHQSIKTGDIFFDSGTFV | -0.889 ± 0.49
98 | STLSWSFIYTSIC | 2.24 ± 0.1
99 | STMAGTLW | 0.051 ± 0.4
100 | STMFSVNFST | inactive
101 | STNRWQHIL | -0.382 ± 0.48
102 | STRVWWDSWMFWLNEK | -0.607 ± 1
103 | STSRFTMQQRRKLYKSFCWR | -0.665 ± 1.1
104 | STSVWRGLSRPRNVQRRLDT | -0.985 ± 0.42
105 | STSWGSRSVDCC | -0.609 ± 0.25
106 | STTQEF | 0.086 ± 0.32
107 | STVMWLRASLRIQNYTRGDT | 4.54 ± 0.052
108 | STYLFNSSHPVSVISEAQFS | -0.408 ± 0.79
109 | SVDGMLSVSVLVNDVVKTPL | 0.309 ± 0.22
110 | SVDYLCFVFNGGRSSSECQY | 7.755 ± 0.032

Row | Substance | amyloid nucleation score
111 | SVFSYMYRLNSALLYFFYQS | inactive
112 | SVGIVSSDRCLCLMSM | 1.3 ± 0.39
113 | SVGVTVSRVASREGSSRSRA | 0.573 ± 0.36
114 | SVIIQLSYTRGYWLLQA | -0.845 ± 0.45
115 | SVKNR | 3.51 ± 0.049
116 | SVLELYRTSIFYLRLVSNLL | 3.52 ± 0.079
117 | SVLIFATRKCLYFYLGFMR | -1.66 ± 0.45
118 | SVLQTTFVLVVGKTYNTSTD | 2.94 ± 0.072
119 | SVLTCKLK | inactive
120 | SVNSC | -0.654 ± 1
121 | SVNYFLRGHKPRVNVVPSVE | 5.119 ± 0.046
122 | SVRFAC | -0.114 ± 1.1
123 | SVRKGVFNSSMNGVCTTVQS | -0.28 ± 0.74
124 | SVRNNLAVGDKLFNVTADCN | 0.168 ± 0.8
125 | SVSNVPRGWSLTRGLSTVPG | 0.828 ± 0.22
126 | SVSQPYSKSVGLRGRGKQGQ | 0.737 ± 0.46
127 | SVSVYTASS | inactive
128 | SVVFDYCSGIVSRY | -0.483 ± 1.1
129 | SVVVNPCLLA | -0.623 ± 1
130 | SVVYSFTRMPVGIFLMISEL | -0.552 ± 0.35
131 | SVYMLRLNYYSFVVLRQTGA | -0.135 ± 0.79
